3 molecules from patent US6586216B2 (Purdue Research Foundation, priority 1997, dated 2003) can be followed below.

Data set [1] concerns the target T1, wild type B. subtilis glutamine PRPP amidotransferase (Bacillus subtilis, UniProt P00497).
T1 construct: Enzymes of the B. subtilis class are synthesized with an NH2 terminal propeptide and an Fe—S center; made in house; host or cells: E. coli strain TX158 (purF) with plasmid pGZ1
T1 sequence (P00497 12-476): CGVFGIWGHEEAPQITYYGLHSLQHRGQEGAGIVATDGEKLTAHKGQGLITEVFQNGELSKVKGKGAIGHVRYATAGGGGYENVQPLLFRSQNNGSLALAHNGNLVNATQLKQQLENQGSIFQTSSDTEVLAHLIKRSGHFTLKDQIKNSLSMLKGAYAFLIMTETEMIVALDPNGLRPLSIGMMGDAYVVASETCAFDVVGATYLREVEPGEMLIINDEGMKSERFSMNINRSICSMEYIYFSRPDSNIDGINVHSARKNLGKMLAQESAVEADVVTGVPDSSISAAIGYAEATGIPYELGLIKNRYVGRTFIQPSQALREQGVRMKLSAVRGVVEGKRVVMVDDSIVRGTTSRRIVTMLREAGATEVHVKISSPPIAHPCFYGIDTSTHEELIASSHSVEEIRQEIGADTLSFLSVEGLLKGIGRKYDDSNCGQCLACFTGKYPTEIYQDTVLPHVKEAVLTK
The experiment in a line: Inhibition of enzyme activity by nucleotides (glutamate formation assay), wild type. The format is biochemical. The following applies: read-out: Km PRPP; wild type enzyme; data not shown. The procedure: Enzyme activity was assayed by measuring the initial rate of formation of the product glutamate. […] Incubation was at 37° C. for 6 min. […] Reactions were quenched in a boiling water bath for 2 min, and glutamate was determined by the glutamate dehydrogenase method.
Inhibition by nucleotides was determined by the standard assay to which varied concentrations of nucleotide were added. Synergistic inhibition was determined by varying the concentration of one nucleotide in the presence of a fixed concentration of a second nucleotide. Relative activity (see FIG. 1) refers to the enzyme activity at a given concentration of the varied nucleotide relative to that in the absence of the varied nucleotide. I0.5 values were calculated from plots of relative activity versus varied nucleotide concentration.

Data set [2] deals with O=P(O)(O)OC[C@H]1OC(OP(=O)(O)OP(=O)(O)O)[C@H](O)[C@@H]1O. The experiment in a line: purified protein, by the assay type. The following applies: other: S347A enzyme; data not shown; pH 8.0; 37.0 °C.
Data set [3] is described as follows: Specific activity of purified enzyme. Format: biochemical, Bacillus subtilis. The following applies: typical value. The procedure:
For enzyme purification, all buffers were sparged with nitrogen gas prior to use in order to minimize oxidation of the enzyme's Fe-S cluster. All steps were carried out at 4° C. Cells were resuspended in 4 mL/gram of buffer A [50 mM Tris-HCl (pH 8.0), 10 mM MgCl2, 0.1 mM EDTA, 5 mM DTT, and 2 mM AMP] containing 1 mM PMSF, and were disrupted by two passes through a French Press. The cell extract was obtained by centrifugation for 1 h at 27,000 g. Protamine sulfate (5 mg per gram of cells) was added to the extract to precipitate DNA. After centrifugation at 27,000 g for 30 min, the supernatant was applied to a 1.9×20 cm column of DEAE-Sepharose equilibrated with buffer A. The column was washed with 300 mL of buffer A and 300 mL of buffer A plus 0.1 M KCl and eluted with a linear salt gradient of 600 mL from 0.1 to 1.0 M KCl in buffer A. Brown-colored fractions containing the enzyme were precipitated by addition of ammonium sulfate to 40% saturation. After centrifugation, enzyme in the brown pellet was recovered by extraction twice with 30% saturated ammonium sulfate. […]
Enzyme activity was assayed by measuring the initial rate of formation of the product glutamate. […] Reactions were quenched in a boiling water bath for 2 min, and glutamate was determined by the glutamate dehydrogenase method. […]

As to `O=P(O)(O)OC[C@H]1OC(OP(=O)(O)OP(=O)(O)O)[C@H](O)[C@@H]1O` (stereo partly drawn) [PRPP, phosphoribosylpyrophosphate], in data set [1], the Km lay within 75 to 81 µM.

In the case of “glutamine PRPP amidotransferase S347A mutant enzyme (Bacillus subtilis subsp. subtilis str. 168; S358A)”, the Km in data set [2] worked out at 182 µM.

B1: wild type: wild type B. subtilis glutamine PRPP amidotransferase produced from plasmid pGZ1 (protein, UniProt P00497 12-476, looked up)
Amidophosphoribosyltransferase: CGVFGIWGHEEAPQITYYGLHSLQHRGQEGAGIVATDGEKLTAHKGQGLITEVFQNGELSKVKGKGAIGHVRYATAGGGGYENVQPLLFRSQNNGSLALAHNGNLVNATQLKQQLENQGSIFQTSSDTEVLAHLIKRSGHFTLKDQIKNSLSMLKGAYAFLIMTETEMIVALDPNGLRPLSIGMMGDAYVVASETCAFDVVGATYLREVEPGEMLIINDEGMKSERFSMNINRSICSMEYIYFSRPDSNIDGINVHSARKNLGKMLAQESAVEADVVTGVPDSSISAAIGYAEATGIPYELGLIKNRYVGRTFIQPSQALREQGVRMKLSAVRGVVEGKRVVMVDDSIVRGTTSRRIVTMLREAGATEVHVKISSPPIAHPCFYGIDTSTHEELIASSHSVEEIRQEIGADTLSFLSVEGLLKGIGRKYDDSNCGQCLACFTGKYPTEIYQDTVLPHVKEAVLTK
In the case of B1, the Enzyme specific activity in data set [3] was found to be 25 nmol/min/mg.
